Source: the supplement of paper PMC10567573
± gives the standard deviation.

Experiment: protein stability index of a GFP-peptide fusion (GPS, HEK-293T) (PSI 1-6); higher = more stable
Conditions: c terminus: a fixed tail appended
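Note: 24-mer peptide tiles fused after GFP, lentivirally expressed, FACS-sorted into six equal bins by GFP/DsRed ratio, decoded by Illumina sequencing, PSI is the read-weighted mean bin number.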

Row | Sequence | protein stability index (treatment: DMSO) | protein stability index (treatment: MLN4924 1 uM, 8 h)
1 | QLESLGLLAPGEQSLPCTERKPAA [KISS1] | 4.69 ± 0.18 | 4.73 ± 0.15
2 | EDWDSALFAELGYFTDTDELQLEA [ATF6] | 4.3 ± 0.21 | 4.65 ± 0.23
3 | TDANLPSGGKGFKLRRQPSEPKRS [RAB22A] | 4.88 ± 0.41 | 5.08 ± 0.17
4 | PPLPGKALKRQLPFRGDEGIFEES [SNX12] | 4.59 ± 0.21 | 4.74 ± 0.22
5 | PASSRNRSPSGSLRSARGSRGGTR [RBMY1A1] | 5.14 ± 0.37 | 5.25 ± 0.24
6 | LLFPEEEATNGREGLLRFSSWPFS [AUP1] | 2.58 ± 0.23 | 2.51 ± 0.21
7 | EAKEGDLHRIEIPFKFHMLHSGLV [CARM1] | 2.07 ± 0.48 | 2.49 ± 0.23
8 | ILNLTQALKDNKSPLHLVQMPPVI [PI4K2A] | 2.54 ± 0.27 | 2.35 ± 0.23
9 | ATEQAATQESTFQELCEGLLEESD [NOP53] | 5.61 ± 0.19 | 5.58 ± 0.12
10 | LQRHADEFLLDLGHHERSIMTDLY [FUT8] | 2.55 ± 0.21 | 2.69 ± 0.26
11 | VAFVCAFSEALAEGAVKMGMPSSL [PYCR3] | 3.46 ± 0.41 | 2.42 ± 0.36
12 | EERATRLAELQEQLKAVHEQLAAL [BRD3] | 4.59 ± 0.22 | 4.31 ± 0.062
13 | EVTLSEAGSTAGAAETRGAVEGAA [PALM] | 5.43 ± 0.39 | 5.43 ± 0.17
14 | SSEHVTESVADLLALEEPVDYKQS [SLC6A17] | 5.17 ± 0.26 | 5.25 ± 0.34
15 | RSEAVAQLWGQKKKNSNMTYEKLS [ELF3] | 3.52 ± 0.21 | 3.8 ± 0.18
16 | DPGQVGLINSNVSMVDLTSVTLED [FAN1] | 5.05 ± 0.092 | 4.79 ± 0.2
17 | VGTMVGADILAGREDNSGSDVLIG [SLC35F2] | 4.79 ± 0.26 | 4.55 ± 0.22
18 | TTKCVRQYEGHVNEYAYLPLHVHE [DCAF4] | 2.92 ± 0.39 | 3.17 ± 0.2
19 | RSRGASQKKQKLEQKAAGSASAKR [FATE1] | 5.07 ± 0.27 | 5.06 ± 0.31
20 | FLGLGAPNCLSMGSRCLKTFEVPE [ZBED1] | 2.3 ± 0.2 | 2.06 ± 0.28
21 | VVSTSGEQMKVYKCEHCRVLFLDH [IKZF1] | 2.69 ± 0.4 | 2.3 ± 0.64
22 | TRVPRAAIVFTDGRAQDDVSEWAS [MATN2] | 4.34 ± 0.36 | 4.48 ± 0.45
23 | MTMQFISHRFPEDHDPTIEDAYKI [RIT1] | 3.24 ± 0.15 | 3.36 ± 0.22

Row | Sequence | protein stability index (treatment: DMSO) | protein stability index (treatment: MLN4924 1 uM, 8 h)
24 | QKFDTLYAILDEKKSELLQRITQE [TRIM63] | 3.11 ± 0.095 | 3.21 ± 0.29
25 | RQLLCLIDYYESKIRKIHTQRQYK [CEP70] | 2.44 ± 0.37 | 2.95 ± 0.25
26 | ESKDYLSLYLLLVSCPKSEVRAKF [SPOPL] | 2.92 ± 0.38 | 2.82 ± 0.63
27 | NYSIPSNVTNLEGGPGRQTTSPNV [ESR2] | 4.66 ± 0.36 | 4.68 ± 0.27
28 | FPLLPDHATALVEAFRLKQQLHAR [PPEF2] | 2.74 ± 0.11 | 2.79 ± 0.09
29 | IPKLTPGDNPYMYPEQSKGFHKAG [SPATS1] | 3.97 ± 0.28 | 3.84 ± 0.25
30 | EPLRSEILSGKFTILNVRDPTGAS [PTPN9] | 3.65 ± 0.098 | 3.58 ± 0.16
31 | TTVVVFVASMVLGECRQMSSSSQI [CLCN6] | 3 ± 0.49 | 3.22 ± 0.24
32 | REIQPTAILSLDQIKAIRGSNEYT [SPRY1] | 3.99 ± 0.29 | 4.02 ± 0.14
33 | FDVVVILTCSLSFLLCARSLLRGF [MCOLN1] | 3.38 ± 0.31 | 2.98 ± 0.54
34 | AEITQIQSHISDMSVILSMDNNRN [KRT71] | 3.73 ± 0.16 | 3.7 ± 0.14
35 | KKEELLFDDGDDIMATLGFGDSPK [FBF1] | 4.54 ± 0.2 | 4.59 ± 0.27
36 | PGPTAPSPTSRPPWAVDPAFAERY [PDLIM7] | 2.2 ± 0.43 | 3.02 ± 0.36
37 | NAPNSLGVSALCAICGDRATGKHY [HNF4A] | 2.84 ± 0.12 | 3.2 ± 0.15
38 | TDGMILGPEDLSYQIYDVSGESNS [LARP4] | 4.71 ± 0.22 | 4.58 ± 0.37
39 | TEKLKANAESSKTWLKGKFTELRL [TRIM14] | 2.53 ± 0.43 | 2.48 ± 0.42
40 | SAAIHISETLEQKPHFESSTVKTE [EPB41L3] | 4.92 ± 0.66 | 5.06 ± 0.52
41 | DVNDNSPELTITSLFSPVTEDSPL [PCDHGA10] | 4.53 ± 0.21 | 4.65 ± 0.36
42 | ESKTDGDDTETVPSEQSHASGKLR [TCF25] | 5.54 ± 0.26 | 5.56 ± 0.4
43 | ETDSEMNSQESRSDLEDMEEEEGT [SMG5] | 5.74 ± 0.16 | 5.69 ± 0.074
44 | ATYCVRTFALYKNGSSEKREVRQF [PTPRD] | 2.44 ± 0.4 | 2.35 ± 0.39
45 | FSTVWLCWDMQGKRFVAMKVVKSA [SRPK2] | 2.46 ± 0.63 | 2.46 ± 0.28
